Source: patent publication US20250230251A1 (Bristol-Myers Squibb, published 2025)

How the values were obtained:
[1] = target: T1, cyIL-18Rβ-HisAvi (cynomolgus monkey); assay: SPR T200, mAb on anti-hFc, 37C, pH 6
T1 construct: Soluble analyte in SPR; also called cyno IL-18Rβ; cynomolgus monkey IL-18Rβ
T1 chain: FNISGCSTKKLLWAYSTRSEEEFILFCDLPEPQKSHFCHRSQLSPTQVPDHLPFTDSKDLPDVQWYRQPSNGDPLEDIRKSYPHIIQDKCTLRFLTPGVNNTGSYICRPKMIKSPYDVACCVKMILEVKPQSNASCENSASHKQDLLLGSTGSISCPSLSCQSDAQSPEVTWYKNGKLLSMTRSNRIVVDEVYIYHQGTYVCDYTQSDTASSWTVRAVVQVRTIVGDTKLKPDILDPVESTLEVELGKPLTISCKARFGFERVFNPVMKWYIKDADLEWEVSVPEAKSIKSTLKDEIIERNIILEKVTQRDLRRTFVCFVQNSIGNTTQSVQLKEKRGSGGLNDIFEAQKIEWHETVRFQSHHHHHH

[2] = target: T2, huIL-18Rβ-HisAvi (human, UniProt O95256 20-356, biotinylated in the Octet blocking assay); assay: SPR T200, mAb on anti-hFc, 37C, pH 6
T2 construct: Soluble analyte in all SPR runs; captured on streptavidin sensors in the Octet assay; also called human IL-18Rβ; human IL-18Rβ-Avi-His
T2 sequence: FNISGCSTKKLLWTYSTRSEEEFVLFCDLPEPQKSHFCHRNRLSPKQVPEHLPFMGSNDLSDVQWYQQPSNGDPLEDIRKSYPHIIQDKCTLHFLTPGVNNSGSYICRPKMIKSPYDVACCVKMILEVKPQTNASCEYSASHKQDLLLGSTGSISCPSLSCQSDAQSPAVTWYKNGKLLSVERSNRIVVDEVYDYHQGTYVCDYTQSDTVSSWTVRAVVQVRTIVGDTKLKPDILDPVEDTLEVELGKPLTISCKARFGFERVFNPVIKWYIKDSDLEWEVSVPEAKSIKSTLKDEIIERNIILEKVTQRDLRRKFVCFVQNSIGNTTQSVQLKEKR

[3] = target: T2, huIL-18Rβ-HisAvi; assay: SPR T200, pH 7.4; sample stored at pH 6, 4 w 40C
[4] = target: T2, huIL-18Rβ-HisAvi; assay: SPR T200, pH 7.4; sample stored at pH 8, T0
[5] = target: T3, human IL-18Rβ on cells (human, UniProt O95256 20-599); assay: cell-based or functional assay
T3 sequence: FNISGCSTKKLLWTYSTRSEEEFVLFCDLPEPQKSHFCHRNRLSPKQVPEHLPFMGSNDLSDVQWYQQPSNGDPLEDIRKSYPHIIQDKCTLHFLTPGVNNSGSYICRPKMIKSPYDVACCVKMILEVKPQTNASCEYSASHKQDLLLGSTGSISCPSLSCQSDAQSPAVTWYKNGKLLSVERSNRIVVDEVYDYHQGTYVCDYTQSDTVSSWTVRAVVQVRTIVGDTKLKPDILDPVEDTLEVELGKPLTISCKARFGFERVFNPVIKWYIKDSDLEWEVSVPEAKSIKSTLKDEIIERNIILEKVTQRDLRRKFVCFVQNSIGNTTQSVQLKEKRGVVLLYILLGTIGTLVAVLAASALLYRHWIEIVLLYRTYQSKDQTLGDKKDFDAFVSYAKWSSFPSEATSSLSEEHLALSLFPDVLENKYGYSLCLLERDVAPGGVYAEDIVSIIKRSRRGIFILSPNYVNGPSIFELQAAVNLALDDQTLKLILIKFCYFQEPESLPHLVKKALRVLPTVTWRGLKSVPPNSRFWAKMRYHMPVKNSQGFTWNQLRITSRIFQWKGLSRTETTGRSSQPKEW

[6] = target: T2, huIL-18Rβ-HisAvi; assay: SPR T200, pH 7.4; sample stored at pH 8, 4 w 4C
[7] = target: T1, cyIL-18Rβ-HisAvi; assay: SPR screen, 1:1 fit
[8] = target: T2, huIL-18Rβ-HisAvi; assay: SPR screen, 1:1 fit
[9] = target: T1, cyIL-18Rβ-HisAvi; assay: SPR T200, mAb on anti-hFc, 37C, pH 7.4
[10] = target: T2, huIL-18Rβ-HisAvi; assay: SPR T200, mAb on anti-hFc, 37C, pH 7.4
[11] = target: T1, cyIL-18Rβ-HisAvi; assay: SPR T200, mAb on anti-hFc, 37C, pH 6
[12] = target: T2, huIL-18Rβ-HisAvi; assay: SPR T200, mAb on anti-hFc, 37C, pH 6; remark: listed apart in the source
[13] = target: the molecule itself; assay: clone self-interaction BLI, antibody on AHQ sensor against 1 µM of the same antibody
[14] = target: T2, huIL-18Rβ-HisAvi; assay: SPR T200, pH 7.4; sample stored at pH 6, 4 w 4C
[15] = target: T2, huIL-18Rβ-HisAvi; assay: SPR T200, pH 5 against pH 7.4

B1: P20 (antibody, human IgG1, kappa)
heavy: QVQLQQSGPGLVKPSETLSLTCTVSGGSINNYYWSWIRQPPGKGLEWIGYIFYSGTTNYNPSLKSRVTISVDTSKNQFSLKLSSVTAADTAVYYCARDVGIAARNSYYYVMDVWGQGTTVTVSSASTKGPSVFPLAPSSKSTSGGTAALGCLVKDYFPEPVTVSWNSGALTSGVHTFPAVLQSSGLYSLSSVVTVPSSSLGTQTYICNVNHKPSNTKVDKRVEPKSCDKTHTCPPCPAPEAEGAPSVFLFPPKPKDTLMISRTPEVTCVVVDVSHEDPEVKFNWYVDGVEVHNAKTKPREEQYNSTYRVVSVLTVLHQDWLNGKEYKCKVSNKALPAPIEKTISKAKGQPREPQVYTLPPSREEMTKNQVSLTCLVKGFYPSDIAVEWESNGQPENNYKTTPPVLDSDGSFFLYSKLTVDKSRWQQGNVFSCSVMHEALHNHYTQKSLSLSPG
light: AIQLTQSPSSLSASVGDRVTITCRASQGISSALAWYQQKPGKAPKFLIYDASSLESGVPSRFSGSGSGTDFTLTISSLQPEDFATYYCQQFNSYPITFGQGTRLEIKRTVAAPSVFIFPPSDEQLKSGTASVVCLLNNFYPREAKVQWKVDNALQSGNSQESVTEQDSKDSTYSLSSTLTLSKADYEKHKVYACEVTHQGLSSPVTKSFNRGEC
notes: Human IgG
Kd [1]: 1.6 nM
koff [1]: 0.00028 s⁻¹
kon [1]: 180000 M⁻¹ s⁻¹
apparent Kd (pooled screen) [2]: 0.43 nM
apparent koff (pooled screen) [2]: 0.00016 s⁻¹
apparent kon (pooled screen) [2]: 380000 M⁻¹ s⁻¹
apparent Kd (pooled screen) [3]: 1.3 nM
apparent koff (pooled screen) [3]: 0.00039 s⁻¹
apparent kon (pooled screen) [3]: 300000 M⁻¹ s⁻¹
apparent Kd (pooled screen) [4]: 1.6 nM
apparent koff (pooled screen) [4]: 0.00035 s⁻¹
apparent kon (pooled screen) [4]: 220000 M⁻¹ s⁻¹
IC50, LPS+IL-12 dependent IFNg production, human whole blood [5]: 1.66 nM
apparent Kd (pooled screen) [6]: 1.5 nM
apparent koff (pooled screen) [6]: 0.00035 s⁻¹
apparent kon (pooled screen) [6]: 230000 M⁻¹ s⁻¹
Kd [7]: 3.8 nM
apparent Kd (pooled screen) [8]: 1.4 nM
Kd [9]: 1.4 nM
koff [9]: 0.00024 s⁻¹
kon [9]: 180000 M⁻¹ s⁻¹
apparent Kd (pooled screen) [10]: 0.51 nM
apparent koff (pooled screen) [10]: 0.00017 s⁻¹
Kd [11]: 1.6 nM
koff [11]: 0.00028 s⁻¹
kon [11]: 180000 M⁻¹ s⁻¹
apparent Kd (pooled screen) [12]: 0.43 nM
apparent koff (pooled screen) [12]: 0.00016 s⁻¹
apparent kon (pooled screen) [12]: 380000 M⁻¹ s⁻¹
Average CSI-BLI ΔResponse [13]: 0.02 nm
apparent Kd (pooled screen) [14]: 1.5 nM
apparent koff (pooled screen) [14]: 0.00036 s⁻¹
apparent kon (pooled screen) [14]: 240000 M⁻¹ s⁻¹
KD ratio (KD pH 5/KD pH 7) [15]: 1.08
kd ratio (kd pH 5/kd pH 7) [15]: 0.63

B2: P20-V1 (antibody, human IgG1, kappa, V domains shown)
VH: QVQLQESGPGLVKPSETLSLTCTVSGGSINNYYWSWIRQPPGKGLEWIGYIFYSGTTNYNPSLKSRVTISVDTSKNQFSLKLSSVTAADTAVYYCARDVGIAARNSYYYVMDVWGQGTTVTVSS
VL: AIQLTQSPSSLSASVGDRVTITCRASQGISSALAWYQQKPGKAPKFLIYEASSLESGVPSRFSGSGSGTDFTLTISSLQPEDFATYYCQQFNSYPITFGQGTRLEIKR
notes: Variant of P20
Kd [9]: 1.4 nM
koff [9]: 0.00028 s⁻¹
kon [9]: 200000 M⁻¹ s⁻¹
Kd [10]: 0.43 nM
koff [10]: 0.00015 s⁻¹
kon [10]: 340000 M⁻¹ s⁻¹
Kd [11]: 1.7 nM
koff [11]: 0.00028 s⁻¹
kon [11]: 160000 M⁻¹ s⁻¹
Kd [12]: 0.45 nM
koff [12]: 0.00015 s⁻¹
kon [12]: 340000 M⁻¹ s⁻¹
